From US20220041752A1 (Bayer, published 2022) come the findings set out here.

In assay [1] the target is human tissue factor pathway inhibitor (TFPI) (human) (UniProt P10646). The assay is described as follows: SPR (Biacore) blocking assay: human TFPI immobilised on a CM5 chip, control Fab at 1 ug/ml injected before 5 ug/mL FVIIa/TF complex; this bar is the reference set to 100% by definition, so FVIIa/TF binding is not reduced.
The target is the same in assay [2]. The assay can be described thus: SPR (Biacore) blocking assay: human TFPI immobilised on a CM5 chip, control Fab at 1 ug/ml injected before 5 ug/mL FXa; this bar is the reference set to 100% by definition, so FXa binding is not reduced. For orientation: Surface plasmon resonance follows binding to a sensor surface in real time, without labels.
In assay [3] the target is T1, human tissue factor pathway inhibitor (TFPI) (human, UniProt P10646 29-304).
T1 construct: also called human TFPI
T1 sequence: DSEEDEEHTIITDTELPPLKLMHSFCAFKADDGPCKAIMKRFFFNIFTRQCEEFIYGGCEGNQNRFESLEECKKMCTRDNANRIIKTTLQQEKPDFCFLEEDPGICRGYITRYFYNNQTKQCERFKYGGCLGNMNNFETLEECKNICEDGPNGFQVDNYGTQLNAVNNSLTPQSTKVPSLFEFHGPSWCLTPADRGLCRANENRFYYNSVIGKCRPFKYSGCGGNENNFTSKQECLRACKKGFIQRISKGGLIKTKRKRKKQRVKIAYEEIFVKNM
The assay can be described thus: assay and TFPI form not stated; reference is the wild type with hc_Asp62.

For assay [4], the target named is T1, human tissue factor pathway inhibitor …. The assay is described as follows: assay and TFPI form not stated; reference is the wild type with hc_Lys99.

Consider Ctrl Fab, for which, in assay [1], the FVIIa/TF binding (% of the signal after control Fab) came to 100%. In assay [2], this molecule yielded an FXa binding (% of the signal after control Fab) of 100%.

B1: Fab A (Fab, V domains shown)
VH: QVQLQQSGPGLVKPSQTLSLTCAISGDSVSSNSAAWSWIRQSPGRGLEWLGIIYKRSKWYNRYAVSVKSRITINPDTSKNQFSLQLNSVTPEDTAVYYCARWHSDKHWGFDYWGQGTLVTVSS
VL: DIVMTQSPLSLPVTPGEPASISCRSSQSLVFSDGNTYLNWYLQKPGQSPQLLIYKGSNRASGVPDRFSGSGSGTDFTLKISRVEAEDVGVYYCQQYDSYPLTFGQGTKVEIKR
notes: Expressed in E. coli; also called monoclonal antibody Fab A
Regarding B1, the “fold affinity increase against wild type (hc_Asp62)” value in assay [3] worked out at 120 fold.

B2: Fab B (Fab, V domains shown)
VH: QVELVESGGGLVQPGGSLRLSCAASGFTFRSYGMSWVRQAPGKGLEWVSSIRGSSSSTYYADSVKGRFTISRDNSKNTLYLQMNSLRAEDTAVYYCARLYRYWFDYWGQGTLVTVSS
VL: DIELTQPPSVSVAPGQTARISCSGDNLRNYYAHWYQQKPGQAPVVVIYYDNNRPSGIPERFSGSNSGNTATLTISGTQAEDEADYYCQSWDDGVPVFGGGTKLTVLG
notes: also called monoclonal TFPI antibody Fab B
For B2, the “fold affinity increase against wild type (hc_Lys99)” value in assay [4] turned out to be 20 fold.
